Measurements reported in publication PMC5603729 (Cell Reports, 2017).
Each block holds one binder with its values, some of them ahead of it.

What was measured:
[1] = biological target: S. cerevisiae Exo-9 core complex (recombinant, untagged) (S. cerevisiae, UniProt P46948;Q12277;P25359;Q05636;P53256;P48240;P38792;Q08285;P53859); assay: MST
[2] = biological target: T1, S. cerevisiae Rrp45 (subunit of the crystallised Exo-9) (S. cerevisiae, UniProt Q05636 1-305); assay: crystal structure
T1 sequence: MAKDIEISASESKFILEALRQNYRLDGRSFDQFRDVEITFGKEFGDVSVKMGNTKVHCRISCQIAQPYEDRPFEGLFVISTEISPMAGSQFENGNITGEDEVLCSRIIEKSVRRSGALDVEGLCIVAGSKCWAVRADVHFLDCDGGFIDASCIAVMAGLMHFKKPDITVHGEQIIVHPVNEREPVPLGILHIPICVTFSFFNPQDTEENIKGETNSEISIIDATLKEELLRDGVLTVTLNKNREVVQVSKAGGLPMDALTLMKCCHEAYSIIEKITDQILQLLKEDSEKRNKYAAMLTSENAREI

Kd [1]: ~82 nM
B1: Mpp6^FL S184C labeled with red-maleimide (natural protein)
chain: MSANNGVTGKLSSRVMNMKFMKFGKTDDEESSNSNTPSNINSDVEPIEQKGKLFGLDDSAWDLNSYKDDLKKISGKEKKKVKRVVYKKRPNLIISNVGYSELRKPEGVISGRKTFGDNSDDSGSRKRKFDEGEQNEDEKRDAKDKEFTGSQDDGEDEYDLDKLFKDSIKKKKTNHNGKNKNRNCKK
modifications: cysteine-reactive fluorophore (red-maleimide) on the introduced cysteine 184

binding result [2]: binds
B2: S. cerevisiae Rrp40 (subunit of the crystallised Exo-9) (natural protein)
chain: MSTFIFPGDSFPVDPTTPVKLGPGIYCDPNTQEIRPVNTGVLHVSAKGKSGVQTAYIDYSSKRYIPSVNDFVIGVIIGTFSDSYKVSLQNFSSSVSLSYMAFPNASKKNRPTLQVGDLVYARVCTAEKELEAEIECFDSTTGRDAGFGILEDGMIIDVNLNFARQLLFNNDFPLLKVLAAHTKFEVAIGLNGKIWVKCEELSNTLACYRTIMECCQKNDTAAFKDIAKRQFKEILTVKEE
